# Measurements taken from the DeepSol protein solubility set.
# Experiment: soluble on expression in E. coli; label from the status in PepcDB or PDB records
row,Sequence,soluble on expression in E. coli
1,MLSIKGKKWRNWTGNVEGTPHYTMYPESIQDVVEVVGLARKKGKKIRVVGSGHSFTPLVQTEEVLVSLDELKGIVNIDAEKMVAEVWAGTKLYDLGKLLEEKGYAQENLGDIDSQSIAGAISTGTHGTGITFGSLSTQVIEITAVLSNGESIVCSETENVEYWRAFQLSLGMLGIIVKIKLKVIPAYSLVYESEKQSLSTVMNKLEEYKKHRHFEFFVFPYSDEVQVKLTNETTNTGSDLKWHKLKVELLENRMFSLLSKGCKWFPSISKGVSRLSAKAVPNTKIIGPSYEVFATSRTVPFYEMEYSIPSKYMRTVVEEISNLIEKKKYKVHFPIECRYVKGDDIWLSPAYGRDSAYIAVHMYKGMKYAAYFGEVEKIFLKYEGRPHWGKMHTLSYEQLQDIYPEFHSFLQARKSLDELGMFFNPYAEKLFIPLFAGQLEHHHHHH,soluble
2,MHHHHHHSSGRENLYFQGPKCIQCGQYLDDPDLKYGQHPPDAVDEPQMLTNEKLSIFDANESGFESYEALPQHKLTCFSVYCKHGHLCPIDTGLIEKNIELFFSGSAKPIYDDDPSLEGGVNGKNLGPINEWWITGFDGGEKALIGFSTSFAEYILMDPSPEYAPIFGLMQEKIYISKIVVEFLQSNSDSTYEDLINKIETTVPPSGLNLNRFTEDSLLRHAQFVVEQVESYDEAGDSDEQPIFLTPCMRDLIKLAGVTLGQRRAQAR,soluble
3,MSHHRSAFFISDRTGITAESLGHTLLTQFDALDFQRETVPFVDTVEKARALAERISEIAERDHLRPLVFTSIVNPEVREALRLNNVVLIDFFESFIGHLEIELGQKATLTVGKAHGMVNEEKYDHRIEAVNFSLNHDDGVKLKDLHEADVILVGVSRSGKTPTCLYLALQYGIRAANYPLTPEDLGSPTLPKMLLPFKDKMFGLTIDPNRLHHIRSERRPDSKYASMDNCRREVNEAESMFRHHGVPFISTTHKSIEEIASTIMHKAALGRKFLEHHHHHH,soluble
4,MEKKFIAIYDLESDKIEIIDDKFRFKCIEDCGKCCIYNEIPLREEDIQKILSLGYEEEYFVDYTKMFYRGPKFLGYGMKKRPFDDACVFLDPETKKCRIYEHRPVACRIYPFVLVKHEKKLEIYVKEDPRCPGINSPDGEGIVEIIKKYFIPIIEELKGEINGNRRSRQEDFISFNRRLETVVAAALEHHHHHH,not soluble
5,MASETIHFSFANADVYIVARSPNNQNGTGDDTMSYSAKSFSALINAMRADGITRLEQLARQPFRNAQGFWSAEVKK,not soluble
6,MAHHHHHHMPLLTRGQRRLLEYVAHDGGTKGLKRRRMEDVAPVLHKRKQKWTHKFTTKTASADASLAEVPLSSEVLEFLREYCPKVPRKLRQSQLRVISDLSGAFGGNSEKEEGETFTVKRVELKENAEVFAVVALAALQRRALWSGSTPQGASLFVLVETDADAAALAAHMGNTYKMTRTLVLDGSRFPTFPAVEKDDAATATTLAERTALVIASLQAFVTVDARSAIWKFIGAYAIWLKSSKPPALLQEMADGTRSELEENCAGSGGVVWDMPRWLLSLLHRESPSLHP,not soluble
7,MPEVRAERYIPAPPERVYRLAKDLEGLKPYLKEVESLEVVAREGARTRSRWVAVAMGKKVRWLEEEEWDDENLRNRFFSPEGDFDRYEGTWVFLPEGEGTRVVLTLTYELTIPIFGGLLRKLVQKLMQENVESLLKGLEERVLAASS,soluble
8,MGSDKIHHHHHHMNYTQNQKISQITPSTLVIGIDVAKDKHVARAQDDRGLEFGKRLIFENRIHGFELLLEWALRHAKENSKDHIIFGVEPTGHYWLNLAYYLTAKDFDFVLVNPMHVKKSKELDDNSPTKNDTKDAKVISQLIKDGRYSVPNLLDGIYAELREGVKLRDQLIQQLLITEGRIQNIIDRYFPEFFDVFGDWEGKAAFCTLKLFPFPSQIVKMTPEEVLRQWKPFVQRGVGIKRATKLVETAHKSIGITIGSHFAQREMSSLLDQWELFKKQLEELDQELEGVVRTIPGANEMIDITGLGVATVTTVLSEIGDLKKYKHPQQLVNLAGLSLRENSSGKFKGQTTITKRGRSKLRRALYLAIRPLVAHNPTFKALHHYYTKRPDKPLKKQQSLIALCCKLLRVLFVIGQKQCPFDGSKLLQGIPQEKTLQAA,not soluble
9,MSLSRSLSECIDQGRGLVPADLVLKHGRVFDLVTGELVQTDVAICGDRIVGTFGTYTGRREIDCRGRILVPGFIDTHLHVESSLVTPFEFDRCVTPRGITTAICDPHEIANVCGLEGIRYFLEASAHLVMDLRVQLSSCVPSTHMETAGAALEAKDLAPLMDHPRVIGLAEFMNFPGVLMKDPGCMAKLEAFRGRHIDGHAPLLRGKDLNGYIAAGIRTEHEATTAEEALEKLRKGMRVLIREGSVSKDLHALVSILTERHAPYLCLCTDDRNPLDIAEHGHIDHMIRTAIRLGAPPLAVYRAASLSAADAFGLKDRGLIAPGRRADIAVLDSLEGCHAALVLAGGVVADDAAFSARSDIEPVARASVKVAEIAPEAFRCPGNRADTPVIGILPGKIITEHLTAEIEPVDGDKRPDPVRDLARIAVIERHGKTGGRATGFVRGFGMARGAIASTVCHDHHNLAVVGIDYADMALAANRLRALEGGFAVAAGGEILAELALPVGGLMSLRPFEEVRDALVTLREAARSLGVTLEEPFLQLAFLALPVIPHLKITDRGMVDVDRFEILEGHHHHHH,soluble
10,MASDEGKLFVGGLSFDTNEQSLEQVFSKYGQISEVVVVKDRETQRSRGFGFVTFENIDDAKDAMMAMNGKSVDGRQIRVDQAGKSSDNR,soluble
11,AHHHHHHGSSKDRMVELLQEHFELNLYEARAYVALVAFGVLTPAELASVSEVPAPRTYDVLRSLEKKGFAMTQPGKTNKYRPVHPANVLEKFIQDWQERVKEELEAKKKAKEELLELMAPLIETEVPKYGVERVWVVRGIKNSTLKTKEMLEEAQNEILLADDGFIAVNLEDDIIKAVDRGVKTKILLTKNLLPRLKASKIIDYAKEGKLELRALDKFDLPMLICDEEVFFALEDLAARYFNYETQVWIKDHRVVALFKEKFNEYWEKAEKV,soluble
12,MRFKVVGKNIVVTEALKEAAVKKVGKLDKYFRRDAEATITMSVQKNRHIVEVTIPFEGGLLRAEEDSPDMYASIDKVIDSLERQIRRNKTKLEKKVHDGSLRFENIKFDDDEVEEEPKFEVVRTKKFAIKPMTVEEAILQMNLLGHQFFMFSNAETNEANVVYRRKDGNYGLIEPEF,not soluble
13,MKIGIIGATGKAGSRILKEALDRGHEVTAIVRNAAKITEENVKVLEKDVFSLTSNDLQAFDVVVNAFGAPAGHDHLHVDAGNVLIEAMKGAPNTKLVVVGGAGSLFVDEEKTTRVFETPGFPEEYLATAQNQGKNLEILQQTNDITWTFISPSALFALGKRTGSYKAGKDNLLVNAKGDSYVSYEDFAVAALDEIENPKHVNERFTVVSEAE,not soluble
14,GMSTAAESEIRQLIERWMQAVRDRDIPGIIAPYADDIVAFDAIQALQFKGKSAYTAHWEMCMGMCTGPMVFELAQLTVHAAGDLALAHWLNRCGPGDDESQCGFMRATVGYRRQGGQWQVIHEHWSAPFDMETQKALFDLKP,soluble
15,MRRVMIPKPGGGERPLGIPTIRDRVVQAAAKIVLEPIFEADFEDGAYGYRPRRNAVDAVKEVHRLMCRGYTDVVDADLSKYFDTIPHSDLLKSVARRIVDRNVLRLIKLWLRVPVEERDSNGKRRMSGGKSNKCGTPQGGVMVPLEHHHHHH,not soluble
16,TDSTGIDLHEFLVNTLKKNPRDRMMLLKLEQEILEFINDNNNQFKKFPQMTSYHRMLLHRVAAYFGMDHNVDQTGKAVIINKTSNTRIPEQRFSEHIKDEKNTEFQQRFIL,soluble
17,MAHHHHHHMTVVQEAIRVTSATPQPCGAADDVLAMKTLSPHDKVRRYMEEQECRHVPPTDATPEVASSEGGHDDALPGQHEDGDGEINHKIVPFTGEPGPDARERVPDRQKEKKKQKKQQAPRKRKHRSECAGREADDPLLLFRRSQKALRTEARHVNMKEVLSRSLSGVFDGLGEASNPFSPAAGSQSSSAWSPLVANSITSQFLSNVQQRKKQTFERLLQKEIANSQLSTSRLTPDDGEPDDRIPELVIGDETAVMEPPSMGHDALLMDAGTTSSQADTLLMGNTTSRGFVELDEEAEQAQSEALMRKHELWRLRQKHLRERLRAEESIPQLKRGDHQASLRGQPQTTVPMNFVTQSTSSLSTARGTTADVDGPTETLVLAHCSIIQQSQSLALGLSADHIEMIRRANNFDNTSSQRLVVFETKSRMKREGLAHLQQ,not soluble
